Reference: patent US6710030

How the values were obtained:
Assay in all cases: cell-based or functional assay
[1] = target: integrin αvβ3 on cells (T24, MDA-MB-435, β3-transfected 293 cells) (human) (UniProt P06756)
[2] = target: integrin αvβ5 on cells (T24, T24-β3 neg., OVCAR-5) (human) (UniProt P06756)
[3] = target: integrin receptors on the surface of MDA-MB-435 cells

integrin αvβ5 on cells (T24, T24-β3 neg., OVCAR-5) (human), sequence (P06756 31-1048, chain 1 of 2): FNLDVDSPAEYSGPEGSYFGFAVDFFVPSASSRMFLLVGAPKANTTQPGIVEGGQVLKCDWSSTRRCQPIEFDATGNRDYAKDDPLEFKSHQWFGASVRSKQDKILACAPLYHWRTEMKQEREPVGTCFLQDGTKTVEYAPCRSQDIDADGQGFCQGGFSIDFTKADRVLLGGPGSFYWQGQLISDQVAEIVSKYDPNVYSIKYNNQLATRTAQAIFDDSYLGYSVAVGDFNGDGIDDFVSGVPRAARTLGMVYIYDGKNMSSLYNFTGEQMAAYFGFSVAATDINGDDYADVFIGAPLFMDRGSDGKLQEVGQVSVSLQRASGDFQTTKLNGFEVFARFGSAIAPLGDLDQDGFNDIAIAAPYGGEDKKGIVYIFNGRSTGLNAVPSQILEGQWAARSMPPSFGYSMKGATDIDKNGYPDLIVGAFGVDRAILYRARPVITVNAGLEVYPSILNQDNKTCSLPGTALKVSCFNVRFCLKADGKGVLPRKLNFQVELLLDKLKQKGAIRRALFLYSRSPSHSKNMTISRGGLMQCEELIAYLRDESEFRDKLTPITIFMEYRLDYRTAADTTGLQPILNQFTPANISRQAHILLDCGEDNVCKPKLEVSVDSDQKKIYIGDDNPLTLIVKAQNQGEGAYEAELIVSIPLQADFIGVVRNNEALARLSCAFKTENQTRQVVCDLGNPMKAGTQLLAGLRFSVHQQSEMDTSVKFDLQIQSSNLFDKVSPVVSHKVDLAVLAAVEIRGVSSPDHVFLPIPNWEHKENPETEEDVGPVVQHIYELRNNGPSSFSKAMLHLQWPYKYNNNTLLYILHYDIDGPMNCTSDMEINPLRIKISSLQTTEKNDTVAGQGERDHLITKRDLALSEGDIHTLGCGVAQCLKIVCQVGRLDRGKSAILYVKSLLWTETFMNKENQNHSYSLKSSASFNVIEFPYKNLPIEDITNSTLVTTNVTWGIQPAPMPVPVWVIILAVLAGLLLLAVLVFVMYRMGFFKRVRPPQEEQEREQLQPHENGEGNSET
integrin αvβ5 on cells (T24, T24-β3 neg., OVCAR-5) (human), sequence (P18084 24-799, chain 2 of 2, further chain): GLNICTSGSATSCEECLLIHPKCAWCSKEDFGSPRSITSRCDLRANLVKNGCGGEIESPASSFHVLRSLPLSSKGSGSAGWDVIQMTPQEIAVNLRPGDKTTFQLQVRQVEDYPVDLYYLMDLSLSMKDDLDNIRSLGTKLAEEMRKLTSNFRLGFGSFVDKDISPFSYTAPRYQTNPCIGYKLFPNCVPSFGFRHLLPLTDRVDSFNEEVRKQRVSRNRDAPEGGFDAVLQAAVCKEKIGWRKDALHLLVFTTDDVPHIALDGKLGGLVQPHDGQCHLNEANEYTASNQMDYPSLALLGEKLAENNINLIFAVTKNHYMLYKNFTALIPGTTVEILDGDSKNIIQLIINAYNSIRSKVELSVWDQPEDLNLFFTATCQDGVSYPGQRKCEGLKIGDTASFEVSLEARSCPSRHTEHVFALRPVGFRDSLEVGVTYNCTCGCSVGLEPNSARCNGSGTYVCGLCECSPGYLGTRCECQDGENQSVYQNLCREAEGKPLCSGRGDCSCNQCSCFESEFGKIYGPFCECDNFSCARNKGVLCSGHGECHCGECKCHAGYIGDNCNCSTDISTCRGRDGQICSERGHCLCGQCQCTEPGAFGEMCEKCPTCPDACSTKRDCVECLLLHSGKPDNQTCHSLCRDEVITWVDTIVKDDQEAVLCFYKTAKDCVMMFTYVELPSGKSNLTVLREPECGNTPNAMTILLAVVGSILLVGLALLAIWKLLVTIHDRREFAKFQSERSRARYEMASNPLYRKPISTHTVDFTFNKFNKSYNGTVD
integrin αvβ3 on cells (T24, MDA-MB-435, β3-transfected 293 cells) (human), sequence (P06756 31-1048, chain 1 of 2): as the sequence (P06756 31-1048, chain 1 of 2) above
integrin αvβ3 on cells (T24, MDA-MB-435, β3-transfected 293 cells) (human), sequence (P05106 27-788, chain 2 of 2, further chain): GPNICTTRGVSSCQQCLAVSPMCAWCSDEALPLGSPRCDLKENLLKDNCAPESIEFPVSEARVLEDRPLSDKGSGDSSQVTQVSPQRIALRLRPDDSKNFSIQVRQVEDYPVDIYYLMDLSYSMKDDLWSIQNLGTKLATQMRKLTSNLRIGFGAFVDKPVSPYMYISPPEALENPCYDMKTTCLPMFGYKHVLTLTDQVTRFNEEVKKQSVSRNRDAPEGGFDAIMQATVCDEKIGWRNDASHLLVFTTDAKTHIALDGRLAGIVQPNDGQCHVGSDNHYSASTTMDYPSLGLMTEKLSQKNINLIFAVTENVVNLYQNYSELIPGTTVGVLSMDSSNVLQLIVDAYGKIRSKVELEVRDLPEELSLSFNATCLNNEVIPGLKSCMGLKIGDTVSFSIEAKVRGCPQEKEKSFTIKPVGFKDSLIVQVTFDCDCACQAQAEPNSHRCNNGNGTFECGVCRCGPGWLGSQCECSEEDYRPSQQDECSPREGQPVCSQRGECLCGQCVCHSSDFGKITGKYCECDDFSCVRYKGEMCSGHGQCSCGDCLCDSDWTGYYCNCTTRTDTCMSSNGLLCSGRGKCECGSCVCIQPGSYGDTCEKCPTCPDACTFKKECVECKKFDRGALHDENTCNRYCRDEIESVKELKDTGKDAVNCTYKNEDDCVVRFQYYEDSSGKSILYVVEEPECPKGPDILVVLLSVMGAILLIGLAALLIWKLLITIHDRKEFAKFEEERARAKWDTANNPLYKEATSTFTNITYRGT

## 7E3, murine monoclonal antibody against (GP)IIb/IIIa that also binds αvβ3
[1]
  inhibition of adhesion of T24 cells to immobilized vitronectin: < 40%

## P1F6, anti-αvβ5 monoclonal antibody
[2]
  inhibition of adhesion of T24-β3 neg. cells to immobilized vitronectin: 80%
  inhibition of adhesion of T24 cells to immobilized vitronectin: < 40%

## RGD peptide GRGDSP
[3]
  inhibition of binding of MDA-MB-435 cells to immobilized CN (IC50): 400 µM
